Source: patent US20210139932A1

Tests used:
human L-selectin (human) = human L-selectin (human) (UniProt P14151); assay: cell-based or functional assay
CD34 (human) = CD34 (human) (UniProt P28906); assay: cell-based or functional assay
Chain of UniProt P28906 (P28906 32-385): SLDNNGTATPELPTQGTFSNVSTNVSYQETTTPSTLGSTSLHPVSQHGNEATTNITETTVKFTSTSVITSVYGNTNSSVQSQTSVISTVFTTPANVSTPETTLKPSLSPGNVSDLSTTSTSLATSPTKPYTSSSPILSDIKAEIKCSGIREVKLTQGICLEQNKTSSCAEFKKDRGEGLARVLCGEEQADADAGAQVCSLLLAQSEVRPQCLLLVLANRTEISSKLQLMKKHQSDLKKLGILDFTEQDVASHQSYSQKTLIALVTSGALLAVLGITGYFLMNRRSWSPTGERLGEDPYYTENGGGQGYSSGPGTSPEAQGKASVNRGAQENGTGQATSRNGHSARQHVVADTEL

Row | Substance | reduction of the L-selectin enhanced amount of CD34+ transduction (human L-selectin (human)) [%] | transduction of cytokine-stimulated CD34+ cells (% eGFP+ cells) (CD34 (human)) [fold]
1 | anti-human L-selectin antibody (clone DREG56; Thermo Fisher) | 79 | –
2 | human L-selectin (from UniProt P14151 39-372) (ligand) | – | 2
